Measurements as given in paper doi:10.1101/2021.01.14.426634 (bioRxiv, 2021).
“And” between values parts separate entries of the source, which are not always exact repeats. Equal values may be shown once. Read-outs that look alike come from different tables or passages of the source.

B1: Homo sapiens CALHM1 with a 2x FLAG tag at the C-terminus, expressed in HEK293T cells (natural protein, H. sapiens, UniProt Q8IU99 1-346, looked up)
chain: MMDKFRMIFQFLQSNQESFMNGICGIMALASAQMYSAFDFNCPCLPGYNAAYSAGILLAPPLVLFLLGLVMNNNVSMLAEEWKRPLGRRAKDPAVLRYMFCSMAQRALIAPVVWVAVTLLDGKCFLCAFCTAVPVSALGNGSLAPGLPAPELARLLARVPCPEIYDGDWLLAREVAVRYLRCISQALGWSFVLLTTLLAFVVRSVRPCFTQAAFLKSKYWSHYIDIERKLFDETCTEHAKAFAKVCIQQFFEAMNHDLELGHTHGTLATAPASAAAPTTPDGAEEEREKLRGITDQGTMNRLLTSWHKCKPPLRLGQEEPPLMGNGWAGGGPRPPRKEVATYFSKV

Columns and labels:
[1] = molecular target: Danio rerio calcium hemostasis modulator 1 (drCALHM1), full length, purified channel (Danio rerio) (UniProt E7F2J4); assay: cryo-EM structure
[2] = molecular target: Danio rerio calcium hemostasis modulator 1 (drCALHM1), full length, purified channel (Danio rerio) (UniProt E7F2J4); assay: cryo-EM structure; remark: listed apart in the source
[3] = molecular target: Danio rerio calcium hemostasis modulator 1 (drCALHM1), full length, purified channel (Danio rerio) (UniProt E7F2J4); assay: cryo-EM structure; remark: listed apart in the source
cross-linking [4] = molecular target: the molecule itself; assay: cross-linking
cross-linking [5] = molecular target: the molecule itself; assay: cross-linking; remark: listed apart in the source

Row | Molecule | stoichiometry N [1] | stoichiometry N [2] | stoichiometry N [3] | stoichiometry N (cross-linking [4]) | stoichiometry N (cross-linking [5])
1 | Danio rerio calcium hemostasis modulator 1 (drCALHM1), full length, purified channel (from UniProt E7F2J4 1-346) (natural protein) | 7 | 7 and 8 | 8 | – | –
2 | B1 | – | – | – | 8 | 7
